Test results published in publication doi:10.1101/313791 (bioRxiv, 2018).

B1: HDA19-EGFP (HDA19pro:HDA19-EGFP) (enzyme, Arabidopsis thaliana, UniProt O22446 1-501, looked up)
chain: MDTGGNSLASGPDGVKRKVCYFYDPEVGNYYYGQGHPMKPHRIRMTHALLAHYGLLQHMQVLKPFPARDRDLCRFHADDYVSFLRSITPETQQDQIRQLKRFNVGEDCPVFDGLYSFCQTYAGGSVGGSVKLNHGLCDIAINWAGGLHHAKKCEASGFCYVNDIVLAILELLKQHERVLYVDIDIHHGDGVEEAFYATDRVMTVSFHKFGDYFPGTGHIQDIGYGSGKYYSLNVPLDDGIDDESYHLLFKPIMGKVMEIFRPGAVVLQCGADSLSGDRLGCFNLSIKGHAECVKFMRSFNVPLLLLGGGGYTIRNVARCWCYETGVALGVEVEDKMPEHEYYEYFGPDYTLHVAPSNMENKNSRQMLEEIRNDLLHNLSKLQHAPSVPFQERPPDTETPEVDEDQEDGDKRWDPDSDMDVDDDRKPIPSRVKREAVEPDTKDKDGLKGIMERGKGCEVEVDESGSTKVTGVNPVGVEEASVKMEEEGTNKGGAEQAFPPKT

Assays:
[1] = target: B1; assay: fluorescence correlation spectroscopy
[2] = target: the molecule itself; assay: fluorescence correlation spectroscopy

percent of the complex in a 1:1 ratio [1] [%] | stoichiometry N [1] | Binder | stoichiometry N [2]
98.8 | 1 ratio (1:1) | SCR-mCherry (SCRpro:SCR-mCherry) (natural protein, Arabidopsis thaliana, UniProt Q9M384 1-653, looked up) MAESGDFNGGQPPPHSPLRTTSSGSSSSNNRGPPPPPPPPLVMVRKRLASEMSSNPDYNNSSRPPRRVSHLLDSNYNTVTPQQPPSLTAAATVSSQPNPPLSVCGFSGLPVFPSDRGGRNVMMSVQPMDQDSSSSSASPTVWVDAIIRDLIHSSTSVSIPQLIQNVRDIIFPCNPNLGALLEYRLRSLMLLDPSSSSDPSPQTFEPLYQISNNPSPPQQQQQHQQQQQQHKPPPPPIQQQERENSSTDAPPQPETVTATVPAVQTNTAEALRERKEEIKRQKQDEEGLHLLTLLLQCAEAVSADNLEEANKLLLEISQLSTPYGTSAQRVAAYFSEAMSARLLNSCLGIYAALPSRWMPQTHSLKMVSAFQVFNGISPLVKFSHFTANQAIQEAFEKEDSVHIIDLDIMQGLQWPGLFHILASRPGGPPHVRLTGLGTSMEALQATGKRLSDFADKLGLPFEFCPLAEKVGNLDTERLNVRKREAVAVHWLQHSLYDVTGSDAHTLWLLQRLAPKVVTVVEQDLSHAGSFLGRFVEAIHYYSALFDSLGASYGEESEERHVVEQQLLSKEIRNVLAVGGPSRSGEVKFESWREKMQQCGFKGISLAGNAATQATLLLGMFPSDGYTLVDDNGTLKLGWKDLSLLTASAWTPRS | –
– | – | B1 | 2
